# Reference: US20110142761A1 (AbbVie / Abbott, published 2011)
# Where a chain is given by its changes, count along the chain named.
# B1: humanized anti-human IL-1β antibody 1B12.7 (antibody, V domains shown)
# VH: EVQLVESGGGLVQPGGSLRLSCAVSGFTLSDYGVSWIRQAPGKGLEWLGLIWGGGDTYYNSPLKSRLTISKDNSKSTVYLQMNSLRAEDTAVYYCAKQRTLWGYDLYGMDYWGQGTLVTVSS
# VL: DTVVTQSPAFLSVTPGEKVTITCITSTDIDVDMNWYQQKPDQPPKLLISQGNTLRPGVPSRFSSSGSGTDFTFTISSLEAEDAATYYCLQSDNLPLTFGQGTKLEIK
# notes: Cloned into IgG expression vectors and made as full-length humanized antibody; also called h1B12VH.2a/h1B12VL.2a; combination 7
# B2: humanized anti-human IL-1β antibody 1B12.2 (antibody, V domains shown)
# VH: EVQLQESGPGLVKPSETLSLTCTVSGFSLSDYGVSWIRQPPGKGLEWLGLIWGGGDTYYNSPLKSRLTISKDNSKSQVSLKLSSVTAADTAVYYCAKQRTLWGYDLYGMDYWGQGTLVTVSS
# VL: ETTVTQSPSSLSASVGDRVTITCITSTDIDVDMNWYQQKPGKPPKLLISQGNTLRPGVPSRFSSSGSGTDFTFTISSLQPEDFATYYCLQSDNLPLTFGQGTKLEIK
# notes: Cloned into IgG expression vectors and made as full-length humanized antibody; also called h1B12VH.1a/h1B12VL.1b; combination 2
# B3: humanized anti-human IL-1β antibody 1B12.4 (antibody, V domains shown)
# VH: B2 VH
# VL: B1 VL with D1E, V3T
# notes: Cloned into IgG expression vectors and made as full-length humanized antibody; also called h1B12VH.1a/h1B12VL.2b; combination 4
# B4: humanized anti-human IL-1β antibody 1B12.5 (antibody, V domains shown)
# VH: B1 VH
# VL: B2 VL with E1D, T3Q
# notes: Cloned into IgG expression vectors and made as full-length humanized antibody; also called h1B12VH.2a/h1B12VL.1a; combination 5
# B5: humanized anti-human IL-1β antibody 1B12.8 (antibody, V domains shown)
# VH: B1 VH
# VL: B1 VL with D1E, V3T
# notes: Cloned into IgG expression vectors and made as full-length humanized antibody; also called h1B12VH.2a/h1B12VL.2b; combination 8
# B6: humanized anti-human IL-1β antibody 1B12.6 (antibody, V domains shown)
# VH: B1 VH
# VL: B2 VL
# B7: humanized anti-human IL-1β antibody 1B12.3 (antibody, V domains shown)
# VH: B2 VH
# VL: B1 VL
# B8: humanized anti-human IL-1β antibody 1B12.1 (antibody, V domains shown)
# VH: B2 VH
# VL: B2 VL with E1D, T3Q
# Target: T1, human IL-1β (human, UniProt P01584 117-269)
# T1 construct: it has 153 residues and begins APVRS; also called hIL-1β; recombinant purified human IL-1β
# Experiment: ELISA; antibody captured on anti-human Fc, biotinylated human IL-1β titrated
# Protocol: To determine if anti-IL-1β mAbs bind to human IL-1β, ELISA plates (Nunc, MaxiSorp, Rochester, N.Y.) were incubated overnight at 4° C. with anti-human Fc antibody diluted in Pierce Coat buffer at 2 μg/ml (Jackson Immunoresearch, West Grove, Pa.). Plates were washed five times in washing buffer (PBS containing 0.05% Tween 20), and blocked for 1 hour at 25° C. with 200 μl per well superblock blocking buffer (Thermo scientific, #37515). Blocking buffer was removed by tapping plates, and 2 μg/ml of each antibody in PBS containing 10% superblock, 0.5% tween-20 was added to the wells at 100 μl per well and incubated at 25° C. for 1 hour. The wells were washed five times in 1×PBST, and 1 μg/ml biotinylated antigen was titrated at 1:6 serial dilutions (for a range of μg to pg in PBS containing 10% superblock, 0.05% tween 20). Each dilution of antigen was then added to the plates and incubated for 1 hour at 25° C. The wells were washed five times in 1×PBST and incubated for 1 hour at 25° C. with polyHRP streptavidin (KPL #474-3000, Gaithersburg, Md.). The wells were washed five times in 1×PBST, and 100 μl of ULTRA-TMB ELISA (Pierce, Rockford, Ill.) were added per well. Following color development the reaction was stopped with 1N HCL and absorbance at 450 nm was measured. The results are shown in Table 9, and the numerical value indicating binding of human anti-IL-1β antibodies to human IL-1β.
row,EC50,Binder
1,0.0582 nM,B1
2,0.0376 nM,B2
3,0.0378 nM,B3
4,0.0488 nM,B4
5,0.0479 nM,B5

# Target: T1, human IL-1β
# Experiment: cell-based or functional assay
row,Potency on Human IL-1β IC50 (pM); inhibition of IL-1β-induced IL-8 production by MRC-5 cells,Binder
1,581 pM,B1
2,146 pM,B2
3,378 pM,B6
4,303 pM,B7
5,597 pM,B3
6,151 pM,B8
7,319 pM,B4
8,484 pM,B5

# Target: T1, human IL-1β
# Experiment: SPR (Biacore 3000), antibody captured, human IL-1β as analyte, 25 C
# Protocol: The BIACORE® assay (Biacore, Inc., Piscataway, N.J.) determines the affinity of antibodies with kinetic measurements of on-, off-rate constants. Binding of antibodies to recombinant purified human IL-1β was determined by surface plasmon resonance-based measurements with a Biacore™ 3000 instrument (Biacore™ AB, Uppsala, Sweden) using running HBS-EP (10 mM HEPES [pH 7.4], 150 mM NaCl, 3 mM EDTA, and 0.005% surfactant P20) at 25° C. All chemicals were obtained from Biacore® AB (Uppsala, Sweden) unless otherwise stated. Approximately 5,000 RU of goat anti-mouse IgG, (Fcγ), fragment specific polyclonal antibody (Pierce Biotechnology Inc, Rockford, Ill.) diluted in 10 mM sodium acetate (pH 4.5) was directly immobilized across a CM5 research grade biosensor chip using a standard amine coupling kit according to manufacturer's instructions and procedures at 25 μg/ml. Unreacted moieties on the biosensor surface were blocked with ethanolamine. Modified carboxymethyl dextran surface in flowcell 2 and 4 was used as a reaction surface. Unmodified carboxymethyl dextran without goat anti-mouse IgG in flow cell 1 and 3 was used as the reference surface. For kinetic analysis, rate equations derived from the 1:1 Langmuir binding model were fitted simultaneously to association and dissociation phases of all eight injections (using global fit analysis) with the use of Biaevaluation 4.0.1 software. Purified antibodies were diluted in HEPES-buffered saline for capture across goat anti-mouse IgG specific reaction surfaces. Mouse antibodies to be captured as a ligand (25 μg/ml) were injected over reaction matrices at a flow rate of 5 μl/minute. The association and dissociation rate constants, kₒₙ (unit M⁻¹s⁻¹) and koff (unit s⁻¹) were determined under a continuous flow rate of 25 μl/minute. Rate constants were derived by making kinetic binding measurements at ten different antigen concentrations ranging from 10-200 nM. The equilibrium dissociation constant (unit M) of the reaction between antibodies and the target antigen was then calculated from the kinetic rate constants by the following formula: KD=koff/kₒₙ. Binding is recorded as a function of time and kinetic rate constants are calculated. In this assay, on-rates as fast as 10⁶M⁻¹s⁻¹ and off-rates as slow as 10⁻⁶s⁻¹ can be measured.
Kd,koff,kon,Binder
0.284 nM,0.00164 s⁻¹,5.76e+06 M⁻¹ s⁻¹,B1
0.147 nM,0.0009 s⁻¹,6.13e+06 M⁻¹ s⁻¹,B2
0.161 nM,0.00097 s⁻¹,6.01e+06 M⁻¹ s⁻¹,B3
0.231 nM,0.00144 s⁻¹,6.24e+06 M⁻¹ s⁻¹,B4
0.23 nM,0.00137 s⁻¹,5.94e+06 M⁻¹ s⁻¹,B5
